{"source": "the MegaScale stability set (Tsuboyama et al. 2023)", "parents": {"B1": {"name": "EEHEE_rd4_0763 (parent)", "chain": "LTVHVGNVTYHFDNPEQAEEWAKRMAKKYQGQIHVKDGQFRIE"}}}
{"variants_of": "B1", "test": "folding stability dG (cDNA display proteolysis); higher = more stable", "settings": "PBS, room temperature", "units": {"folding stability dG": "kcal/mol"}}
{"variant": "Q39Y", "folding stability dG": 1.37}
{"variant": "Q39N", "folding stability dG": 1.66}
{"variant": "Q39T", "folding stability dG": 1.29}
{"variant": "Q39G", "folding stability dG": 1.7}
{"variant": "Q39A", "folding stability dG": 1.71}
{"variant": "G31V", "folding stability dG": 1.78}
{"variant": "G31S", "folding stability dG": 1.47}
{"variant": "G31E", "folding stability dG": 0.971}
{"variant": "A26E", "folding stability dG": 0.642}
{"variant": "A26L", "folding stability dG": 1.25}
{"variant": "A26I", "folding stability dG": 1.06}
{"variant": "A26G", "folding stability dG": 0.842}
{"variant": "A26T", "folding stability dG": 0.749}
{"variant": "A26D", "folding stability dG": 0.393}
{"variant": "A26N", "folding stability dG": 0.911}
{"variant": "A26M", "folding stability dG": 1.28}
{"variant": "V3T", "folding stability dG": 0.36}
{"variant": "V3S", "folding stability dG": 0.339}
{"variant": "V3M", "folding stability dG": 0.815}
{"variant": "V3D", "folding stability dG": 0.189}
{"variant": "V3E", "folding stability dG": 0.235}
{"variant": "V3L", "folding stability dG": 1.06}
{"variant": "V3C", "folding stability dG": 1.34}
{"variant": "V3N", "folding stability dG": 0.243}
{"variant": "V3Q", "folding stability dG": 0.344}
{"variant": "V35Q", "folding stability dG": 1.2}
{"variant": "V35N", "folding stability dG": 1.18}
{"variant": "V35E", "folding stability dG": 1.21}
{"variant": "V35H", "folding stability dG": 1.21}
{"variant": "V35R", "folding stability dG": 1.08}
{"variant": "V35D", "folding stability dG": 0.963}
{"variant": "E16Q", "folding stability dG": 1.69}
{"variant": "E16T", "folding stability dG": 1.68}
{"variant": "E16P", "folding stability dG": 0.809}
{"variant": "E16A", "folding stability dG": 1.68}
{"variant": "E16C", "folding stability dG": 2.54}
{"variant": "K36Y", "folding stability dG": 1.7}
{"variant": "K36H", "folding stability dG": 1.75}
{"variant": "K36P", "folding stability dG": 0.849}
{"variant": "K36L", "folding stability dG": 1.7}
{"variant": "K36D", "folding stability dG": 1.51}
{"variant": "K36S", "folding stability dG": 1.69}
{"variant": "K36T", "folding stability dG": 1.73}
{"variant": "K36E", "folding stability dG": 1.84}
{"variant": "K36G", "folding stability dG": 1.39}
{"variant": "K36W", "folding stability dG": 1.65}
{"variant": "W21M", "folding stability dG": 0.944}
{"variant": "W21R", "folding stability dG": -0.245}
{"variant": "W21F", "folding stability dG": 2.28}
{"variant": "W21T", "folding stability dG": 0.307}
{"variant": "W21G", "folding stability dG": 0.008}
{"variant": "W21D", "folding stability dG": -0.466}
{"variant": "W21Y", "folding stability dG": 1.5}
{"variant": "W21S", "folding stability dG": 0.046}
{"variant": "K23R", "folding stability dG": 1.85}
{"variant": "K23H", "folding stability dG": 1.58}
{"variant": "K23W", "folding stability dG": 1.56}
{"variant": "K23A", "folding stability dG": 1.3}
{"variant": "K23T", "folding stability dG": 1.32}
{"variant": "K23I", "folding stability dG": 1.76}
{"variant": "K23M", "folding stability dG": 1.61}
{"variant": "V5G", "folding stability dG": 0.415}
{"variant": "V5P", "folding stability dG": 0.391}
{"variant": "V5T", "folding stability dG": 0.582}
{"variant": "V5K", "folding stability dG": 0.531}
{"variant": "V5R", "folding stability dG": 0.733}
{"variant": "V5D", "folding stability dG": 0.649}
{"variant": "V5L", "folding stability dG": 1.54}
{"variant": "V5S", "folding stability dG": 0.647}
{"variant": "V5W", "folding stability dG": 1.82}
{"variant": "V5E", "folding stability dG": 0.355}
{"variant": "H4M", "folding stability dG": 1.8}
{"variant": "H4Q", "folding stability dG": 1.72}
{"variant": "H4G", "folding stability dG": 0.951}
{"variant": "H4D", "folding stability dG": 0.78}
{"variant": "H4E", "folding stability dG": 1.24}
{"variant": "H4S", "folding stability dG": 1.72}
{"variant": "H4F", "folding stability dG": 1.6}
{"variant": "H4A", "folding stability dG": 1.55}
{"variant": "H4P", "folding stability dG": 0.289}
{"variant": "I33N", "folding stability dG": 0.836}
{"variant": "I33V", "folding stability dG": 1.59}
{"variant": "I33L", "folding stability dG": 1.65}
{"variant": "I33F", "folding stability dG": 1.41}
{"variant": "I33Y", "folding stability dG": 1.2}
{"variant": "I33D", "folding stability dG": 0.877}
{"variant": "I33T", "folding stability dG": 0.877}
{"variant": "I33P", "folding stability dG": 0.833}
{"variant": "I33M", "folding stability dG": 1.21}
{"variant": "G6V", "folding stability dG": 0.969}
{"variant": "G6M", "folding stability dG": 1.51}
{"variant": "G6S", "folding stability dG": 1.11}
{"variant": "G6K", "folding stability dG": 1.18}
{"variant": "G6D", "folding stability dG": 1.43}
{"variant": "G6W", "folding stability dG": 1.5}
{"variant": "G6P", "folding stability dG": 0.447}
{"variant": "G6A", "folding stability dG": 1.41}
{"variant": "G6Q", "folding stability dG": 1.18}
{"variant": "Y29L", "folding stability dG": 1.68}
{"variant": "Y29W", "folding stability dG": 1.61}
{"variant": "Y29Q", "folding stability dG": 0.696}
{"variant": "Y29C", "folding stability dG": 2.16}
{"variant": "Y29N", "folding stability dG": 0.767}
{"variant": "Y29M", "folding stability dG": 1.35}
{"variant": "Y29V", "folding stability dG": 1.27}
{"variant": "Y29I", "folding stability dG": 1.32}
{"variant": "P15Y", "folding stability dG": 2.17}
{"variant": "P15E", "folding stability dG": 1.47}
{"variant": "P15T", "folding stability dG": 1.58}
{"variant": "P15M", "folding stability dG": 1.73}
{"variant": "P15C", "folding stability dG": 1.86}
{"variant": "P15L", "folding stability dG": 1.86}
{"variant": "P15H", "folding stability dG": 1.7}
{"variant": "P15V", "folding stability dG": 1.71}
{"variant": "P15W", "folding stability dG": 1.91}
{"variant": "P15F", "folding stability dG": 1.94}
{"variant": "D13M", "folding stability dG": 1.49}
{"variant": "D13F", "folding stability dG": 1.36}
{"variant": "D13A", "folding stability dG": 1.43}
{"variant": "D13E", "folding stability dG": 1.6}
{"variant": "D13W", "folding stability dG": 1.4}
{"variant": "D13V", "folding stability dG": 1.46}
{"variant": "D13Y", "folding stability dG": 1.34}
{"variant": "E19W", "folding stability dG": 2.63}
{"variant": "E19L", "folding stability dG": 2.25}
{"variant": "E19Y", "folding stability dG": 2.35}
{"variant": "E19T", "folding stability dG": 1.41}
{"variant": "E19Q", "folding stability dG": 1.58}
{"variant": "E19K", "folding stability dG": 1.62}
{"variant": "E19H", "folding stability dG": 1.72}
{"variant": "E19V", "folding stability dG": 1.69}
{"variant": "E19M", "folding stability dG": 2.07}
{"variant": "K28V", "folding stability dG": 1.43}
{"variant": "K28R", "folding stability dG": 1.78}
{"variant": "K28L", "folding stability dG": 1.83}
{"variant": "K28Y", "folding stability dG": 1.72}
{"variant": "K28S", "folding stability dG": 0.897}
{"variant": "K28N", "folding stability dG": 0.823}
{"variant": "N7G", "folding stability dG": 1.71}
{"variant": "N7Q", "folding stability dG": 1.56}
{"variant": "N7R", "folding stability dG": 1.76}
{"variant": "N7I", "folding stability dG": 1.49}
{"variant": "N7T", "folding stability dG": 1.67}
{"variant": "N7P", "folding stability dG": 1.45}
{"variant": "N7F", "folding stability dG": 1.62}
{"variant": "N7S", "folding stability dG": 1.7}
{"variant": "R41M", "folding stability dG": 1.94}
{"variant": "R41A", "folding stability dG": 1.4}
{"variant": "R41K", "folding stability dG": 1.38}
{"variant": "R41T", "folding stability dG": 2.02}
{"variant": "R41L", "folding stability dG": 1.98}
{"variant": "R41D", "folding stability dG": 1.34}
{"variant": "R41F", "folding stability dG": 3.1}
{"variant": "A22E", "folding stability dG": 0.234}
{"variant": "A22R", "folding stability dG": 1.01}
{"variant": "A22Y", "folding stability dG": 1.06}
{"variant": "A22M", "folding stability dG": 1.36}
{"variant": "E20I", "folding stability dG": 1.58}
{"variant": "E20Y", "folding stability dG": 1.69}
{"variant": "E20H", "folding stability dG": 1.41}
{"variant": "E20R", "folding stability dG": 1.81}
{"variant": "E20K", "folding stability dG": 1.8}
{"variant": "E20T", "folding stability dG": 1.39}
{"variant": "E20D", "folding stability dG": 1.54}
{"variant": "E20P", "folding stability dG": -0.521}
{"variant": "E20N", "folding stability dG": 1.58}
{"variant": "E20V", "folding stability dG": 1.35}
